According to article PMC4980431, “Ctf4 Is a Hub in the Eukaryotic Replisome that Links Multiple CIP-Box Proteins to the CMG Helicase” (Molecular Cell, 2016):
Where a SMILES comes first, the peptide text is derived from it.

Legend:
[1] = system: budding yeast cells (W303 background); test: Yeast growth in the presence of hydroxyurea; type: cell-based
Description: (§1) Yeast growth, two-hybrid analysis, and immunoprecipitation experiments were performed as described in detail previously ([Maculins et al., 2015], [Maric et al., 2014]). A two-hybrid screen against amino acids 461–927 of Ctf4 was performed by the company Hybrigenics.

[2] = system: Ctf4; test: Co-purification with Ctf4 from yeast cell extracts; type: cell-based, budding yeast; conditions: extracts of yeast cells; S phase and G1-phase; immunoblotting
Description: Figure 3 Interaction of the Type I CIP-Box Protein Dna2 with Ctf4 Is Important for rDNA Maintenance (A) GAL-DNA2-9MYC CTF4-TAP (YFV22) and GAL-DNA2-9MYC control cells (YFV21) were grown at 30°C in rich medium containing 2% galactose and then treated as in Figure 2D. The Ctf4-TAP was isolated from cell extracts on magnetic beads coupled to IgG. (B) The smallest fragment of Dna2 that interacted with Ctf4 461–927 in the two-hybrid screen (120–456 shown in red) contains a Ctf4-interacting peptide or CIP-box, closely related to those of Sld5 and Pol1 (upper). […] (C) Mutations in the CIP-box of Dna2 abolished the interaction of full-length Dna2 (1–1,522) or Dna2 120–456 to interact with Ctf4 461–927. (D) When soaked into crystals of Ctf4 471–927, the Dna2 CIP-box binds to the helical region of Ctf4, as previously observed for the CIP-boxes of Pol1 and Sld5 ([Simon et al., 2014]). […]
Figure 4 Tof2 and Dpb2 Define a New Class of Type II CIP-Box Proteins that Bind to a Novel Binding Pocket on the Surface of Ctf4 (A) The smallest fragments of Dpb2 and Tof2 that interacted with Ctf4 461–927 in the two-hybrid screen (shown in red) were each found to contain a putative CIP-box with limited homology to the type I CIP-boxes of Sld5, Dna2, and Pol1. […] The indicated proteins were monitored by immunoblotting. […]

[3] = biological target: T1, Ctf4 471-927 (Ctf4CTD) (Saccharomyces cerevisiae, UniProt Q01454); test: Fluorescence anisotropy, peptide binding to Ctf4 471-927; parameters: species or system budding yeast; conditions: legend of Figure S3C; 50 nM fluorescein-labeled Dna2 peptide, pH 7.2, 25°C; mean of three independent experiments
T1 sequence (Q01454 471-927): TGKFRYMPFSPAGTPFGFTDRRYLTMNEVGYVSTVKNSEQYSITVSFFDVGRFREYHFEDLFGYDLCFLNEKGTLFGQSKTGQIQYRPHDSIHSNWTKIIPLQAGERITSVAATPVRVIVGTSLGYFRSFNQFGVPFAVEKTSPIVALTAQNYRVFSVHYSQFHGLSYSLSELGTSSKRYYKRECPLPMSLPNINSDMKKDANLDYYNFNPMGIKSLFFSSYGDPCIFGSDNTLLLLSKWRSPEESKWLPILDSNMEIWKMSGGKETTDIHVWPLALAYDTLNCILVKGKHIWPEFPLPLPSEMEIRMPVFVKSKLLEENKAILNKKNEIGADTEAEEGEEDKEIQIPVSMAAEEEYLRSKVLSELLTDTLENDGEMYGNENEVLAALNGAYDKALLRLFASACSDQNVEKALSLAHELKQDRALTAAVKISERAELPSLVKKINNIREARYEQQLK
Description: The lowest concentration of peptide at which the binding studies could be performed was determined via peptide calibration curves. Fluorescence anisotropy measurements were recorded in a PHERAstar Plus multi-detection plate reader (BMG Labtech) equipped with fluorescence polarization optic module (λex = 485 nm; λem = 520 nm) at 25°C. Each data point is the mean of 200 flashes/well. The voltage gain was set by adjusting the target mP values of fluorescein-labeled peptides relative to that of fluorescein (35 mP). Serial dilutions of Ctf4CTD were made in 20 mM HEPES (pH 7.2), 140 mM KCl, and 5% (w/v) glycerol in the presence of 40 nM (Sld5 and Tof2) or 50 nM (Dna2) fluorescein-labeled peptide. For Dna2 peptide, each data point is the mean of three independent experiments and curve fitting to the experimental data was performed in pro Fit 6.2 (QuantumSoft) using a Levenberg-Marquardt fitting algorithm in combination with a Gaussian error distribution analysis.

[4] = system: CMG helicase; test: Co-purification with CMG helicase from yeast cell extracts; type: cell-based, budding yeast; conditions: extracts of S phase yeast cells; immunoprecipitation, immunoblotting
Description: (D) Cultures of ctf4-4E MCM4-9MYC (YFV13) and MCM4-9MYC control cells (YSS75) were synchronized in G1-phase at 30°C and then released into S phase for 20 min. The Mcm4-9MYC was isolated from cell extracts by immunoprecipitation and the associated proteins monitored by immunoblotting. (E) ctf4-4E is synthetic lethal with mrc1Δ. The cells were processed as in Figure 1A, and the photos in the lower images were taken after 20 hr growth at 30°C (the scale bars represent 50 μm). See also Figure S2. TEXT PRINTED IN THE PICTURE: (C) Ctf4-4E (471-927): 162 kDa
as §1

[5] = biological target: the molecule itself; test: SEC-MALS; 100 μl at 2 mg/ml on Superdex S200 HR 10/300 in 20 mM HEPES pH 7.2, 160 mM NaCl, 0.5 ml/min

`NC(=O)NO` [hydroxyurea] was tested, and the “sensitivity to hydroxyurea, ctf4-3E cells (in words)” value ([1]; ctf4-3E cells compared with ctf4Δ, Figure 5F) was “do not share the sensitivity of ctf4Δ cells” and the “sensitivity to hydroxyurea, pol1-4A cells (in words)” value ([1]; pol1-4A cells, in contrast to ctf4Δ, Figure 1B) was “does not cause sensitivity”.

With “nuclease/helicase Dna2: multi-functional nuclease/helicase Dna2, expressed in yeast cells” the “co-purification with Ctf4 (in words)” value [2] was “co-purified with Ctf4”.

With `CC[C@H](C)[C@H](NC(=O)[C@H](CC(=O)O)NC(=O)[C@H](CC(=O)O)NC(=O)[C@H](CC(C)C)NC(=O)[C@@H](NC(=O)[C@H](CC(=O)O)NC(=O)[C@H](CC(=O)O)NC(=O)[C@@H](NC(=O)[C@H](CC(N)=O)NC(=O)[C@H](CCCNC(=N)N)NC(=O)[C@H](CC(C)C)NC(=O)[C@@H](N)CO)[C@@H](C)CC)[C@@H](C)CC)C(=O)N[C@@H](CCC(=O)O)C(=O)NCC(=O)N[C@@H](CC(=O)O)C(=O)N[C@@H](CC(C)C)C(=O)N[C@H](C(=O)O)[C@@H](C)O` [Dna2 peptide (207-223)] (H-SLRNIDDILDDIEGDLT-OH) the Kd [3] was 229 µM.

B1: tagged form of Tof2: tagged form of Tof2 expressed in budding yeast cells (protein)
chain: MIKMWRLQIVLVPPSAQDIITFLEARLNTPQSVSPMVQYNEDIITHNNSINNCSDPSPTSPSSQNSIQSNRSSDFINYLPNCKKFLHFTDGDNTLLQLSNEILTKFDRLYPNFKESIEIVSLQDRHGCDLDSEFIIKDVFENDGVVLVILKDELDWSRNQHISLLQLARQRRRQDNKPSTKSIVTEKRKKISKEDLSSISNKDTMHLIAKSSLKNNFINKSRVSTPLMNEILPLASKYDALNKEKCPMPLTSTVVASNVHKDVKDHARAKEGVVTQGSDNNKENIPSSTQQQKNDGAKRAESKDLDLLRNSSEDADYEPADENSPQISFDSIDTDFQLSTTSHTNSDMHIQYSNPSSGAHSPRKSSLEIKVQNKKGDDLPLNDKDIGENCRRIEAFSDEEDFNETDNDRADSFINNSKKASMGFRDINSDLDSVSFNSDIENAVQSTQSTKNVVSPPFFPEKELNNRLHQSQGKEALFRLVEKEFPDKSLGAASSTSHAKDVKIQETIRKLNRFKPTGETKVQKRNSITEPYYGKFGIMKKDKPKSITSKGVSLETKHFDDPNTIISGEKFAKFGKIKVKRKTDDVGSKVIEFKRKRNMGNRSLKDIFANAGKPPNAASTIKVVKLMRDPVDNSKDKVEATSNSTAQEQEQVSPKLPVMNSTPGKRKNGQAIPSSLERTPQLKKVKVTRSHSSPSSSSSMSLESSLDSSSSDDSDDDSDSRNVQVKKINFKTSHGPAGNSNGKPMLDVDDNEINTKKYQTPKYVESDEDDQ
modifications: left off: ProteinA, end not stated, kept
notes: tagged form of Tof2 expressed in budding yeast cells
With B1 the “co-purification with Ctf4 (in words)” value [2] was “co-purified with Ctf4 in both G1-phase and S phase” and the “association with CMG helicase (in words)” value [4] was “co-purified with the CMG helicase during S phase”.

B2: Ctf4-I901E: Ctf4 with glutamate mutation of I901 (protein)
chain: MVSVIDKLVFDFGGKTLVSLAPDNNTLCVANKNGLTKILKTNNPEEEPETLDSSKLVSSIKCYSNSHFLMTTMQGDALRYNIDSSQEELLARFALPLRDCCVIHSGKMAVFGGDDLELILLELDDETHKKHAIKIDEQVSQISYNSQMNILAVSMINGKVQIFSLTSTIPNKVHELNDYIVANSYDDTHRDKILSNMMDDIDKDNDNDLSETADPDENNVADPEFCAANRICTRVAWHPKGLHFALPCADDTVKIFSIKGYSLQKTLSTNLSSTKAHFIDLQFDPLRGTYIAAVDLNNKLTVWNWETSEIHYTREFKRKITNIAWKIQADSKTLDLVLGTWSGSIAIVQNLAESVVSNIPDQSVAESSTKHGLFVDSESDLENLEGNDDINKSDKLFSDITQEANAEDVFTQTHDGPSGLSEKRKYNFEDEEDFIDDDDGAGYISGKKPHNEHSYSRVHKTHSFPISLANTGKFRYMPFSPAGTPFGFTDRRYLTMNEVGYVSTVKNSEQYSITVSFFDVGRFREYHFEDLFGYDLCFLNEKGTLFGQSKTGQIQYRPHDSIHSNWTKIIPLQAGERITSVAATPVRVIVGTSLGYFRSFNQFGVPFAVEKTSPIVALTAQNYRVFSVHYSQFHGLSYSLSELGTSSKRYYKRECPLPMSLPNINSDMKKDANLDYYNFNPMGIKSLFFSSYGDPCIFGSDNTLLLLSKWRSPEESKWLPILDSNMEIWKMSGGKETTDIHVWPLALAYDTLNCILVKGKHIWPEFPLPLPSEMEIRMPVFVKSKLLEENKAILNKKNEIGADTEAEEGEEDKEIQIPVSMAAEEEYLRSKVLSELLTDTLENDGEMYGNENEVLAALNGAYDKALLRLFASACSDQNVEKALSLAHELKQDRALTAAVKESERAELPSLVKKINNIREARYEQQLK
For B2, the “association with CMG helicase (in words)” value [4] was “unable to interact with the CMG helicase”.

B3: Ctf4-4E 471–927 (domain or fragment, budding yeast, UniProt Q01454 471-927, looked up)
chain: TGKFRYMPFSPAGTPFGFTDRRYLTMNEVGYVSTVKNSEQYSITVSFFDVGRFREYHFEDLFGYDLCFLNEKGTLFGQSKTGQIQYRPHDSIHSNWTKIIPLQAGERITSVAATPVRVIVGTSLGYFRSFNQFGVPFAVEKTSPIVALTAQNYRVFSVHYSQFHGLSYSLSELGTSSKRYYKRECPLPMSLPNINSDMKKDANLDYYNFNPMGIKSLFFSSYGDPCIFGSDNTLLLLSKWRSPEESKWLPILDSNMEIWKMSGGKETTDIHVWPLALAYDTLNCILVKGKHIWPEFPLPLPSEMEIRMPVFVKSKLLEENKAILNKKNEIGADTEAEEGEEDKEIQIPVSMAAEEEYLRSKVLSELLTDTLENDGEMYGNENEVLAALNGAYDKALERLFESACSDQNVEKALSLAHELKQDRALTEAVKESERAELPSLVKKINNIREARYEQQLK
notes: also called Ctf4CTD 4E mutant protein; source: purified protein
In the case of B3, the “stoichiometry N” value [5] is reported as 3.

B4: Ctf4 471–927 (domain or fragment, budding yeast, UniProt Q01454 471-927, looked up)
chain: TGKFRYMPFSPAGTPFGFTDRRYLTMNEVGYVSTVKNSEQYSITVSFFDVGRFREYHFEDLFGYDLCFLNEKGTLFGQSKTGQIQYRPHDSIHSNWTKIIPLQAGERITSVAATPVRVIVGTSLGYFRSFNQFGVPFAVEKTSPIVALTAQNYRVFSVHYSQFHGLSYSLSELGTSSKRYYKRECPLPMSLPNINSDMKKDANLDYYNFNPMGIKSLFFSSYGDPCIFGSDNTLLLLSKWRSPEESKWLPILDSNMEIWKMSGGKETTDIHVWPLALAYDTLNCILVKGKHIWPEFPLPLPSEMEIRMPVFVKSKLLEENKAILNKKNEIGADTEAEEGEEDKEIQIPVSMAAEEEYLRSKVLSELLTDTLENDGEMYGNENEVLAALNGAYDKALLRLFASACSDQNVEKALSLAHELKQDRALTAAVKISERAELPSLVKKINNIREARYEQQLK
notes: also called Ctf4CTD; source: purified Ctf4CTD protein
With B4 the “stoichiometry N” value [5] was 3.
